Measurements as given in US20200102387A1.
Read-outs that look alike come from different tables or passages of the source. Each block holds one substance with its values, some of them ahead of it.

Columns and labels:
[1] = target: rat SIRPα on CHO-K1 cells (rat) (UniProt P97710); experiment: flow cytometry on Rat SIRPα-CHO-K1 cells
[2] = target: mouse SIRPα on cells (mouse) (UniProt P97797); experiment: flow cytometry on Mouse SIRPα-CHO-K1 cells
FcγR1 (CD64) (human) = FcγR1 (CD64) (human) (UniProt P12314); experiment: cell binding, FcγR-engineered HEK293 cells
Sequence of FcγR1 (CD64) (human) (P12314 16-374): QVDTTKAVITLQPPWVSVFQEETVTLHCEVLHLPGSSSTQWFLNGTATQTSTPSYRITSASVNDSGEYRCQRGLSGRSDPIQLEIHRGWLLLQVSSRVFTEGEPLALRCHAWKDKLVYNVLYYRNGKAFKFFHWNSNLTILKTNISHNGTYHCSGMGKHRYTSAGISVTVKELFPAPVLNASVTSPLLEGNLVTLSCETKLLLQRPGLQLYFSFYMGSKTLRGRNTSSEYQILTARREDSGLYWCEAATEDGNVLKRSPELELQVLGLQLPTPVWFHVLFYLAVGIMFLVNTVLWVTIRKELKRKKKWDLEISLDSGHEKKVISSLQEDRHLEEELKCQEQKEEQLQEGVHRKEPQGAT

[3] = target: FcγR2A (CD32aH131) (human) (UniProt P12318); experiment: cell binding, FcγR-engineered HEK293 cells
Sequence of FcγR2A (CD32aH131) (human) (P12318 34-317): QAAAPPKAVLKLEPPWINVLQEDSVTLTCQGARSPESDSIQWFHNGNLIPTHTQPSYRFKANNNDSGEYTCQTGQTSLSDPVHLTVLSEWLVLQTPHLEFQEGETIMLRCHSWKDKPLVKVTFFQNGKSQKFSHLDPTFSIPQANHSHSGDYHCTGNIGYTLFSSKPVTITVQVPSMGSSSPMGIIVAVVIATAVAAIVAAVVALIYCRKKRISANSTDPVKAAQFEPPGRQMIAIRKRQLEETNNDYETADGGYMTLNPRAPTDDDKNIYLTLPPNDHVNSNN

[4] = target: FcγR2A (CD32aR131) (human) (UniProt P12318); experiment: cell binding, FcγR-engineered HEK293 cells
Sequence of FcγR2A (CD32aR131) (human) (P12318 34-317 H167R): as the sequence (P12318 34-317) above, with H134R counted along it

[5] = target: FcγR3A (CD16aF158) (human) (UniProt P08637); experiment: cell binding, FcγR-engineered HEK293 cells
Sequence of FcγR3A (CD16aF158) (human) (P08637 17-254): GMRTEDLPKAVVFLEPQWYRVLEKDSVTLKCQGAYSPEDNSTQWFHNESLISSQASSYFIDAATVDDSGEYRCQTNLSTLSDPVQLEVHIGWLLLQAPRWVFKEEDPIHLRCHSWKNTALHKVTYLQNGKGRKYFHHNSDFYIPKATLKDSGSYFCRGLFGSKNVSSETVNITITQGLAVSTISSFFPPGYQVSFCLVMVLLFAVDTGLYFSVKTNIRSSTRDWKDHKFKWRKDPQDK

[6] = target: FcγR3A (CD16aV158) (human) (UniProt P08637); experiment: cell binding, FcγR-engineered HEK293 cells
Sequence of FcγR3A (CD16aV158) (human) (P08637 17-254 F176V): as the sequence (P08637 17-254) above, with F160V counted along it

FcγR2B (human) [7] = target: FcγR2B (human) (UniProt P31994); experiment: cell binding, FcγR-engineered HEK293 cells
Sequence of FcγR2B (human) (P31994 43-310): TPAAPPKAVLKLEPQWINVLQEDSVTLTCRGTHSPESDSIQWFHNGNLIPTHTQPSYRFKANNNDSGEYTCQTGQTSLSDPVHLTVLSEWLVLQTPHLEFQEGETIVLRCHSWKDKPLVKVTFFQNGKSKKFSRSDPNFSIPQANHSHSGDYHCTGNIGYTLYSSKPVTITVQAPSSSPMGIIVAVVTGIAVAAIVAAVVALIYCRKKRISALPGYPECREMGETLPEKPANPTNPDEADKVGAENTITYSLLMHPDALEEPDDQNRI

[8] = target: FcγR3A (CD16aV158) (human) (UniProt P08637); experiment: cell binding, FcγR-engineered HEK293 cells; remark: listed apart in the source
FcγR2B (human) [9] = target: FcγR2B (human) (UniProt P31994); experiment: cell binding, FcγR-engineered HEK293 cells; remark: listed apart in the source

Sequence of rat SIRPα on CHO-K1 cells (rat) (P97710 32-509): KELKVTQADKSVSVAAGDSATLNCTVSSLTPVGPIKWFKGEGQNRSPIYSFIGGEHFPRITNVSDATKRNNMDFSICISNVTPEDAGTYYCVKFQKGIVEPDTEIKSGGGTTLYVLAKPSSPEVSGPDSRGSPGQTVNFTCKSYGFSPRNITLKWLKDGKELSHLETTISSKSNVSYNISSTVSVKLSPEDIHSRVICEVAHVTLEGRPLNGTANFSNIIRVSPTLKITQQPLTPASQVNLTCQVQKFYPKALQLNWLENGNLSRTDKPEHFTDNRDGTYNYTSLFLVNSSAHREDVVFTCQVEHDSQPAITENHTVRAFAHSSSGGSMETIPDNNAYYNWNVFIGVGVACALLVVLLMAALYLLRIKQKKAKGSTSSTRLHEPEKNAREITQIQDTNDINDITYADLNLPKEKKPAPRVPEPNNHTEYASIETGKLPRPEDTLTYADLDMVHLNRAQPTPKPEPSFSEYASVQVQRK
Sequence of mouse SIRPα on cells (mouse) (P97797 32-513): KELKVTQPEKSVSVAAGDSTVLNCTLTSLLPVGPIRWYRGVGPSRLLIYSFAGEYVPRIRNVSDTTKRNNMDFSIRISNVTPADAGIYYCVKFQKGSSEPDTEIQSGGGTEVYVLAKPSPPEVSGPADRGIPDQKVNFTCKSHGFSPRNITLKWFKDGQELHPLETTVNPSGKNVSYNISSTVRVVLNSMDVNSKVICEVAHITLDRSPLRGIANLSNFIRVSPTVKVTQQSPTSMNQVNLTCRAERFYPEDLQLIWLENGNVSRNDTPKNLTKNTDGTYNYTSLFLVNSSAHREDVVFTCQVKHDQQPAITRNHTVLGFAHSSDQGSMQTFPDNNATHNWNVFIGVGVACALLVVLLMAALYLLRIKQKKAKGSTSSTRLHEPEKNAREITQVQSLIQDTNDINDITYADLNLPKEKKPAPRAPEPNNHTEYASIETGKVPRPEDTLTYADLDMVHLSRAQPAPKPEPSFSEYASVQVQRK

EC50 (read off the curve) [1]: 2 nM
Substance: anti-rat-SIRPα antibody OX-41

EC50 (read off the curve) [2]: 2 nM
Substance: anti-mouse-SIRPα antibody P84

EC50 (FcγR1 (CD64) (human)): 0.83 nM | EC50 [3]: 361 nM | EC50 [4]: 188 nM
Substance: Commercially Available IgG1 (antibody)

EC50 (FcγR1 (CD64) (human)): 1.18 nM | EC50 [5]: 311 nM | EC50 [3]: 137 nM | EC50 [6]: 449 nM | EC50 (FcγR2B (human) [7]): 1200 nM | EC50 [4]: 90.2 nM | EC50 [8]: 127 nM | EC50 (FcγR2B (human) [9]): 2240 nM
Substance: Isotype Control-IgG1 (antibody)
